Consider two substances from patent US20200255503A1.

Some results are limits rather than exact numbers.

As usually defined, the IC50 is the point on the concentration scale where inhibition reaches its midpoint. Low readings indicate greater potency, high ones weaker potency.

The target of assay [1] is Fel d1 (B-A)-mmH (cat (Felis domesticus)). Put plainly: blocking ELISA, Fel d1 binding to donor polyclonal cat-allergic IgE. A general note: In an ELISA, binding on a coated surface is turned into a signal by an enzyme label.
Chain of Fel d1 (B-A)-mmH (cat (Felis domesticus)) (chain, as listed by the source limits assumed): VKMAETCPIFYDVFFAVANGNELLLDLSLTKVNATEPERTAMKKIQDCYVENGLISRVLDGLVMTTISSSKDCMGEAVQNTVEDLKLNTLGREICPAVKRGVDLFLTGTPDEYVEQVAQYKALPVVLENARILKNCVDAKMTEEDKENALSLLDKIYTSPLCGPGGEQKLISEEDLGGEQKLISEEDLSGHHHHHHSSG
The target of assay [2] is natural Fel d1 (cat (Felis domesticus)) (UniProt P30438). In words: blocking ELISA, Fel d1 binding to plate-captured polyclonal human IgE.
The target is the same in assay [3]. In words: cell-based or functional assay.
The target is the same in assay [4]. In words: SPR Biacore T200 sequential binding, 25 µg/mL mAb2 over mAb1:Fel d1; coupled mAb1: REGN1909. Background: SPR reads the build-up and loss of mass on a sensor chip optically.

On to REGN1908-1909, for which, in assay [1], the IC50 worked out at 580 pM. In assay [2], this substance showed an IC50 of 450 pM and a maximum blockade of 83%. In assay [3], the basophil activation test, CD63 upregulation on basophils of cat-allergic donors, IC50 is 10 pM; the basophil activation test, CD203c upregulation on basophils of cat-allergic donors, IC50 was 55 pM; the phosphoflow assay, phosphorylation of ERK in basophils, inhibition was > 80%.

In the case of Non-binding Control mAb (antibody), the Non-binding Control mAb (RU) in assay [4] was -64 RU.
